Laboratory results: patent US20100093602A1 (CASE WESTERN RESERVE UNIVERSITY, published 2010)

T1: N-cadherin expressed on human glioblastoma LN-229 cells (human, UniProt P19022 160-906)
T1 construct: whole, on cells
T1 sequence (looked up): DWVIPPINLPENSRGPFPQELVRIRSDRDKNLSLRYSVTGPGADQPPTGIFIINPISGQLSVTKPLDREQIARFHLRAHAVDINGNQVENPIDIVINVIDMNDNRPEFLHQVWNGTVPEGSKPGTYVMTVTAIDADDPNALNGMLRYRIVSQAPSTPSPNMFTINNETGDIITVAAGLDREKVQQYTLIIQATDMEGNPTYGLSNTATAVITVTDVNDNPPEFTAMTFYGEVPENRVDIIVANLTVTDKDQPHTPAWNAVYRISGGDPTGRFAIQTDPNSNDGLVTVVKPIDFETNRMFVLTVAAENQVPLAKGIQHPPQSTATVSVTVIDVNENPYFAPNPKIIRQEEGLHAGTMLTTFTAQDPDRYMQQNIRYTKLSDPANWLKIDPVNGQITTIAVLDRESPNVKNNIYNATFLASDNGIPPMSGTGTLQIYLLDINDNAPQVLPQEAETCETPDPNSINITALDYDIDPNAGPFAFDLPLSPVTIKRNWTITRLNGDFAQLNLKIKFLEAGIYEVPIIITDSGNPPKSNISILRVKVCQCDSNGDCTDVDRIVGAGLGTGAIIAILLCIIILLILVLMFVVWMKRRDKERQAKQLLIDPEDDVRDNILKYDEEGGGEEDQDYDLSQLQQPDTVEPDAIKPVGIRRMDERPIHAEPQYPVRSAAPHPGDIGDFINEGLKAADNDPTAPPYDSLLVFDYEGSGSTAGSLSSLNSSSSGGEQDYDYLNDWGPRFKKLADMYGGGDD

B1: human N-cadherin-Fc (R&D Systems) (Fc fusion, UniProt P19022 160-724, looked up)
chain: DWVIPPINLPENSRGPFPQELVRIRSDRDKNLSLRYSVTGPGADQPPTGIFIINPISGQLSVTKPLDREQIARFHLRAHAVDINGNQVENPIDIVINVIDMNDNRPEFLHQVWNGTVPEGSKPGTYVMTVTAIDADDPNALNGMLRYRIVSQAPSTPSPNMFTINNETGDIITVAAGLDREKVQQYTLIIQATDMEGNPTYGLSNTATAVITVTDVNDNPPEFTAMTFYGEVPENRVDIIVANLTVTDKDQPHTPAWNAVYRISGGDPTGRFAIQTDPNSNDGLVTVVKPIDFETNRMFVLTVAAENQVPLAKGIQHPPQSTATVSVTVIDVNENPYFAPNPKIIRQEEGLHAGTMLTTFTAQDPDRYMQQNIRYTKLSDPANWLKIDPVNGQITTIAVLDRESPNVKNNIYNATFLASDNGIPPMSGTGTLQIYLLDINDNAPQVLPQEAETCETPDPNSINITALDYDIDPNAGPFAFDLPLSPVTIKRNWTITRLNGDFAQLNLKIKFLEAGIYEVPIIITDSGNPPKSNISILRVKVCQCDSNGDCTDVDRIVGAGLGTGA
notes: also called N-cadherin substrate; purified N-cadherin substrate; not shown: Fc part of the bought fusion

Legend:
[1] = biological target: B1; assay: cell-based or functional assay
[2] = biological target: T1, N-cadherin expressed on human …; assay: cell adhesion assay: LN-229 cells on spots of N-cadherin-Fc on nitrocellulose-coated dishes; this is the pair whose adhesion ADH-1 reduces
Protocol: Sterile 35 mm tissue culture dishes were coated with nitrocellulose in methanol and allowed to dry. Distinct spots, containing 50 ng of either purified Laminin (Sigma) or N-cadherin-Fc (R&D Systems), were made by spotting 10 μl of protein solution on the nitrocellulose-coated tissue culture dishes. Each dish contained two distinct spots of both Laminin and N-cadherin-Fc. After a 20-min incubation at room temperature, the protein solutions were aspirated. Remaining binding sites on the nitrocellulose were blocked with 2% BSA in PBS, and the dishes were rinsed with DMEM (Invitrogen).
4×10⁵ cells were added to each tissue culture dish in the presence of N-cadherin peptidomimetic small molecules, reconstituted in either DMSO or 0.3% cyclodextrin, and diluted in DMEM supplemented with 10% fetal bovine serum (HyClone). In the control experiments, either DMSO or cyclodextrin was added with LN-229 cells in the absence of the peptidomimetic small molecules. The cells were allowed to adhere to the protein substrate for 2 hours at 37° C., 5% CO₂. After incubation, the medium was removed and the tissue culture dishes were rinsed once with PBS to remove any unattached cells. Cells were fixed with 4% PFA, 0.01% glutaraldehyde in PEM buffer for 10 minutes at room temperature and rinsed once in PBS prior to imaging.

Row | IC50 for inhibition of RGC neurite outgrowth [1] | binding result [2] | Binder
1 | 2330 µM |  | Ac-CHAVC-NH2 (also: cyclic peptide, cyclising bond not given here) [ADH-1 (short cyclic HAV peptide N-Ac-CHAVC-NH2)]
2 |  | binds | B1
